Experimental data: patent US20200148781A1 (HELMHOLTZ ZENTRUM M NCHEN DEUTSCHES FORSCHUNGSZENTRUM F R …, published 2020)

Biological target: T1, CD73 protein from lysates of U138 glioblastoma cells (human, UniProt P21589 27-549)
T1 construct: Same endogenous protein as m2, but solubilised in cell lysate for immunoprecipitation
T1 sequence (looked up): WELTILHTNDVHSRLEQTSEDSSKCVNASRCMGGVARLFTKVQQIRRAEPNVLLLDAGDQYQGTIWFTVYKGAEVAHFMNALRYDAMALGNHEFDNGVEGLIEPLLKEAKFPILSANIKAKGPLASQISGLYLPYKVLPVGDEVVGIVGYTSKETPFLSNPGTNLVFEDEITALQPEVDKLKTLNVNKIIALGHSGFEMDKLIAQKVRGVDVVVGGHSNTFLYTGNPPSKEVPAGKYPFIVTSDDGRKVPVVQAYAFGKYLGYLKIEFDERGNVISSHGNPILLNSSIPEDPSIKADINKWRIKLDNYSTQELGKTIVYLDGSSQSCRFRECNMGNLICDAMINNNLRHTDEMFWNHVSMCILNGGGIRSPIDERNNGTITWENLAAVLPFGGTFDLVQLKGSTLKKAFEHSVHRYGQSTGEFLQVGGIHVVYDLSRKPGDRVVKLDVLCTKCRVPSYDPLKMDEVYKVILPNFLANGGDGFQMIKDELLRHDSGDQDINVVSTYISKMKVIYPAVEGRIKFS
Test: immunoprecipitation from cell lysate, immunoblot with a commercial CD73 mAb
Description: In this example, mAb 22E6 binding affinity was characterized (FIG. 3). It was shown that mAb 22E6 recognizes CD73 protein on cancer cells. Using a special flow cytometry technique, a fluorescence-activated cell sorting (FACS) with 22E6 and an anti-rat-IgG-specific, fluorophore-labeled secondary mAb, it was shown that the protein recognized by the 22E6 mAb of the invention is present on the surface of human cancer cells of a total of approx. 30 tested cell lines. U138 MG and GBM20 are glioblastoma cell lines, MDA-MB231 and T47D are human breast cancer cell lines. In order to compare the specificity of mAb 22E6 with the specificity of a commercial CD73 mAb an immunoblot with the same cell lines (U138 MG, GBM20, MDA-MB231 and T47D) was performed using the commercial CD73 mAb as shown in FIG. 3B.

B1: mAb 22E6 (antibody, V domains shown)
VH: EVQLVESGGGLVQPGRSMKLSCAASGFTFSFYYMAWVRQAPTKGLEWVASISTGGGNTYYRDSVKGRFTISRDDAKSTLYLQMDSLRSEETATYYCARHGGDYYGYRGGYFDYWDQGVMVTVSS
VL: DIQMTQTPSSMPASLGERVTISCRASQGINNYLNWYQQKPDGTIKPLIYYTSNLQSGVPSRFSGSGSGTDYSLTISSLEPEDFAMYYCQQYDNSPYTFGAGTKLELK
notes: Rat monoclonal antibody from a hybridoma (rats immunized with EVs of the glioblastoma line GBM20); It was detected with an anti-rat-IgG secondary mAb; also called 22E6 mAb; monoclonal antibody termed "22E6"
**Q.** Does B1 bind?
**A.** binds
